The text below walks through data of publication PMC10881500, “Structure-guided engineering of immunotherapies targeting TRBC1 and TRBC2 in T cell malignancies” (Nature Communications, 2024).

Where two headings read alike, the source gives them in different places.

Assay [1] has as its target T1, Recombinant, purified TRBC1 (soluble αβ TCR with the β-chain constant domain TRBC1), SPR analyte (Homo sapiens, HA1.7 TCR with TRBC1).
Target sequence in this assay (main, as listed by the source, chain 1 of 2): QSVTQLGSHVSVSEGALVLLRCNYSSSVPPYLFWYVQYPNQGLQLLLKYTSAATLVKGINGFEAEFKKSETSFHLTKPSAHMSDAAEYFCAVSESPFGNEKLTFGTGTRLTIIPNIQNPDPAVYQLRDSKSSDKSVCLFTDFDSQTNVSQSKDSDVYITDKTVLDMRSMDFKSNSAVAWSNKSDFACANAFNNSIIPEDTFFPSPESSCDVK
Target sequence in this assay (partner, as listed by the source, chain 2 of 2): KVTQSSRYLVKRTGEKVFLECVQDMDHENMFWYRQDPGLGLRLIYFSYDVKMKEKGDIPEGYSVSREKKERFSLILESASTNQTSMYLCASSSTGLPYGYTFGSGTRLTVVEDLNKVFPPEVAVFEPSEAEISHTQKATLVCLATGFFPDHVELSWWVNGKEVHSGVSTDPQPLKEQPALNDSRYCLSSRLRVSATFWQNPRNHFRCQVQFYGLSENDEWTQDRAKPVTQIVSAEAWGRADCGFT
Assay [2] has as its target T2, TCR with the TRBC1 β-chain constant domain, on cells (Homo sapiens, UniProt P01848;P01850).
Target sequence in this assay (P01848 whole entry, chain 1 of 2, the tested form may be a part): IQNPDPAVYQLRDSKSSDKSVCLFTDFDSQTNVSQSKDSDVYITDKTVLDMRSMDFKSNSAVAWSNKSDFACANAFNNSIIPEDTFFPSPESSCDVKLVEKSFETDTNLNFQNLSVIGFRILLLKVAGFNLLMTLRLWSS
Target sequence in this assay (P01850 whole entry, chain 2 of 2, the tested form may be a part): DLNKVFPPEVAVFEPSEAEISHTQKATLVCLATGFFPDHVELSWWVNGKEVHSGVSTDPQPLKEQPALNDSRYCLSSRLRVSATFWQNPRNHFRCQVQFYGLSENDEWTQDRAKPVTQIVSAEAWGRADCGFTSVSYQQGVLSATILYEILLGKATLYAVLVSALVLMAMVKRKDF
In assay [3] the target is T1, Recombinant, purified TRBC1 (soluble αβ …). Put plainly: SPR; Biacore T200; antibody as human IgG1 captured with an anti-human capture kit on CM5 to 200 RU; TRBC1 or TRBC2 as analyte, 150 s contact, 300 s dissociation, 30 μl/min, 25 °C, HBS-P+ pH 7.4; 1:1 Langmuir model. Conditions: both partners purified. (In general: SPR reads the build-up and loss of mass on a sensor chip optically.)

In assay [4] the target is T3, Recombinant, purified TRBC2 (soluble αβ TCR with the β-chain constant domain TRBC2), SPR analyte (Homo sapiens, HA1.7 TCR with TRBC2).
T3 construct: also called recombinant TRBC2; source: recombinant, purified
The assay is described as above. The note with it: both partners purified.

In assay [5] the target is TCR with the TRBC2 β-chain constant domain, on cells (Homo sapiens, UniProt P01848;A0A5B9). Put plainly: flow cytometry on cells; staining of TCR+ cell lines with HuJovi-1 or KFN. Conditions: one partner purified. In general terms: In flow cytometry, cells or beads pass a laser one at a time.
The target in assay [6] is T3, Recombinant, purified TRBC2 (soluble αβ …). Put plainly: not stated; bi-paratopic (avid) engagement allowed; Supplementary Fig. 12.
Assay [7] has the same target. Put plainly: SPR; Biacore T200; scFv-Fc captured on a Series S Protein A chip to 50 RU; TRBC1 or TRBC2 as analyte, 150 s contact, 500 s dissociation, 30 μl/min, 25 °C, HBS-P+ pH 7.4; 1:1 Langmuir model. The note with it: both partners purified.
Assay [8] deals with T2, TCR with the TRBC1 β-chain constant …. Put plainly: flow cytometry on cells; HPB-ALL TRBC1, HPB-ALL TRBC2 or HPB-ALL TCR KO cells; titration of IgG from 10 μg/ml in 2-fold dilutions, 30 min RT; anti-human IgG Alexa Fluor 647. The note with it: one partner purified.
Target sequence in this assay (P01850 whole entry, looked up, chain 1 of 2, the tested form may be a part): as the sequence (P01850 whole entry, chain 2 of 2, the tested form may be a part) above
Target sequence in this assay (P01848 whole entry, looked up, chain 2 of 2, the tested form may be a part): as the sequence (P01848 whole entry, chain 1 of 2, the tested form may be a part) above
The target in assay [9] is T1, Recombinant, purified TRBC1 (soluble αβ …). The experiment in a line: SPR; Biacore T200; scFv-Fc captured on a Series S Protein A chip to 50 RU; TRBC1 or TRBC2 as analyte, 150 s contact, 500 s dissociation, 30 μl/min, 25 °C, HBS-P+ pH 7.4; 1:1 Langmuir model. The note with it: both partners purified.

Chain of TCR with the TRBC2 β-chain constant domain, on cells (A0A5B9 whole entry, looked up, chain 1 of 2, the tested form may be a part): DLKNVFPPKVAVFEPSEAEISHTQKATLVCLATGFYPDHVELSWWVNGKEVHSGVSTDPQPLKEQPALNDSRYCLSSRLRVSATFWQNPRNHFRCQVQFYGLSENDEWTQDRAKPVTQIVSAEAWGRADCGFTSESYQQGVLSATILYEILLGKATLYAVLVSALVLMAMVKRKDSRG
Chain of TCR with the TRBC2 β-chain constant domain, on cells (P01848 whole entry, looked up, chain 2 of 2, the tested form may be a part): as the sequence (P01848 whole entry, chain 1 of 2, the tested form may be a part) above

B1: MuJovi-1 (antibody, V domains shown)
VH: EVRLQQSGPDLIKPGASVKMSCKASGYTFTGYVMHWVKQRPGQGLEWIGFINPYNDDIQSNERFRGKATLTSDKSSTTAYMELSSLTSEDSAVYYCARGAGYNFDGAYRFFDFWGQGTTLTVSS
VL: DVVMTQSPLSLPVSLGDQASISCRSSQRLVHSNGNTYLHWYLQKPGQSPKLLIYRVSNRFPGVPDRFSGSGSGTDFTLKISRVEAEDLGIYFCSQSTHVPYTFGGGTKLEIK
Usually Kd stands for the constant that tells how readily two partners part at equilibrium. For B1, the dissociation constant Kd in [1] was 1.6 nM. The binding result in [2] was “binds”.

B2: Mut1 (HuJovi-1 VH T28K), human IgG1 (antibody, V domains shown)
VH: QVQLVQSGAEVKKPGASVKVSCKASGYKFTGYVMHWVRQAPGQGLEWMGFINPYNDDIQSNERFRGRVTMTRDTSISTAYMELSRLRSDDTAVYYCARGAGYNFDGAYRFFDFWGQGTMVTVSS
VL: DIVMTQSPLSLPVTPGEPASISCRSSQRLVHSNGNTYLHWYLQKPGQSPRLLIYRVSNRFPGVPDRFSGSGSGTDFTLKISRVEAEDVGVYYCSQSTHVPYTFGQGTKLEIK
notes: as the VH of m1 with the stated change; positions in Kabat numbering; constant region of the human IgG1 heavy chain; as the light chain of m1; IgG1; also called Lys28 mutant; Thr28Lys; source: ExpiCHO, transient transfection, purified (MabSelect SuRe)
One may read the koff as a measure of how fast the partners let go of each other. Regarding B2, in assay [3], the equilibrium dissociation constant (Kd) stood at 6.69 nM and the koff stood at 0.001 s⁻¹. For the same molecule, in assay [4], the Kd turned out to be 7480 nM and the koff amounted to 0.585 s⁻¹.

B3: KFN (Mut3; HuJovi-1 VH T28K, Y32F, A96N), human IgG1 (antibody, V domains shown)
VH: QVQLVQSGAEVKKPGASVKVSCKASGYKFTGFVMHWVRQAPGQGLEWMGFINPYNDDIQSNERFRGRVTMTRDTSISTAYMELSRLRSDDTAVYYCARGNGYNFDGAYRFFDFWGQGTMVTVSS
VL: DIVMTQSPLSLPVTPGEPASISCRSSQRLVHSNGNTYLHWYLQKPGQSPRLLIYRVSNRFPGVPDRFSGSGSGTDFTLKISRVEAEDVGVYYCSQSTHVPYTFGQGTKLEIK
notes: VH of KFN: as the VH of m1 (PDB 7AMP, 7AMQ) with the stated changes, positions in Kabat numbering; constant region of the human IgG1 heavy chain; as the light chain of m1; IgG1; also called Lys28/Phe32/Asn96; aTRBC2; source: ExpiCHO, transient transfection, purified (MabSelect SuRe)
On to B3, for which, in [5], the binding result is recorded as “binds”. The “fold affinity differential TRBC1:TRBC2 with bi-paratopic engagement” value in assay [6] is above 100 fold. Also, in [4], the equilibrium dissociation constant (Kd) is 479 nM and the off-rate constant (koff) turned out to be 0.0386 s⁻¹.

B4: KFN scFv-Fc (scFv, V domains shown)
VH: QVQLVQSGAEVKKPGASVKVSCKASGYKFTGFVMHWVRQAPGQGLEWMGFINPYNDDIQSNERFRGRVTMTRDTSISTAYMELSRLRSDDTAVYYCARGNGYNFDGAYRFFDFWGQGTMVTVSS
VL: DIVMTQSPLSLPVTPGEPASISCRSSQRLVHSNGNTYLHWYLQKPGQSPRLLIYRVSNRFPGVPDRFSGSGSGTDFTLKISRVEAEDVGVYYCSQSTHVPYTFGQGTKLEIK
notes: scFv of KFN: VH and VL as in m6 (PDB 7AMS, 7AMR), that is the VH of m1 with the stated changes (Kabat numbering); scFv-Fc with a murine IgG2a Fc; captured on a Protein A chip; source: ExpiCHO, transient transfection, purified (MabSelect SuRe)
With B4, in [7], the equilibrium dissociation constant (Kd) was found to be 1170 nM and the koff turned out to be 0.0995 s⁻¹.

B5: HuJovi-1 (humanized Jovi-1), human IgG1 (antibody, V domains shown)
VH: QVQLVQSGAEVKKPGASVKVSCKASGYTFTGYVMHWVRQAPGQGLEWMGFINPYNDDIQSNERFRGRVTMTRDTSISTAYMELSRLRSDDTAVYYCARGAGYNFDGAYRFFDFWGQGTMVTVSS
VL: DIVMTQSPLSLPVTPGEPASISCRSSQRLVHSNGNTYLHWYLQKPGQSPRLLIYRVSNRFPGVPDRFSGSGSGTDFTLKISRVEAEDVGVYYCSQSTHVPYTFGQGTKLEIK
notes: VH of HuJovi-1 (CDRs of Jovi-1 grafted on IGHV1-2*02); constant region of the human IgG1 heavy chain; whole light chain (CDRs of Jovi-1 grafted on IGKV2-29*02, kappa constant from the AbVec kappa vector); IgG1; The section on CDR grafting names HEK293T as host, the section on antibody expression ExpiCHO; also called aTRBC1; source: ExpiCHO, transient transfection, purified (MabSelect SuRe)
For the molecule B5, the binding result in assay [8] is reported as “binds”. Moreover, in assay [3], the Kd stood at 2.57 nM and the off-rate constant (koff) came out at 0.000618 s⁻¹.

B6: RFN (Mut4; HuJovi-1 VH T28R, Y32F, A96N), human IgG1 (antibody, V domains shown)
VH: QVQLVQSGAEVKKPGASVKVSCKASGYRFTGFVMHWVRQAPGQGLEWMGFINPYNDDIQSNERFRGRVTMTRDTSISTAYMELSRLRSDDTAVYYCARGNGYNFDGAYRFFDFWGQGTMVTVSS
VL: DIVMTQSPLSLPVTPGEPASISCRSSQRLVHSNGNTYLHWYLQKPGQSPRLLIYRVSNRFPGVPDRFSGSGSGTDFTLKISRVEAEDVGVYYCSQSTHVPYTFGQGTKLEIK
notes: as the VH of m1 with the stated changes; positions in Kabat numbering; constant region of the human IgG1 heavy chain; as the light chain of m1; IgG1 in the SPR; also called Arg28/Phe32/Asn96; source: ExpiCHO, transient transfection, purified (MabSelect SuRe)
Take B6: in [3], the dissociation constant Kd was determined as 1440 nM and the off-rate (koff) stood at 0.125 s⁻¹. Besides, in assay [4], the dissociation constant (Kd) was determined as 582 nM and the koff is 0.045 s⁻¹.

B7: Mut5 (HuJovi-1 VH Y32F), human IgG1 (antibody, V domains shown)
VH: QVQLVQSGAEVKKPGASVKVSCKASGYTFTGFVMHWVRQAPGQGLEWMGFINPYNDDIQSNERFRGRVTMTRDTSISTAYMELSRLRSDDTAVYYCARGAGYNFDGAYRFFDFWGQGTMVTVSS
VL: DIVMTQSPLSLPVTPGEPASISCRSSQRLVHSNGNTYLHWYLQKPGQSPRLLIYRVSNRFPGVPDRFSGSGSGTDFTLKISRVEAEDVGVYYCSQSTHVPYTFGQGTKLEIK
notes: as the VH of m1 with the stated change; positions in Kabat numbering; constant region of the human IgG1 heavy chain; as the light chain of m1; IgG1; source: ExpiCHO, transient transfection, purified (MabSelect SuRe)
Consider B7, for which, in [3], the Kd was found to be 426 nM and the off-rate (koff) is 0.0457 s⁻¹.

B8: Mut2 (HuJovi-1 VH T28K, Y32F), human IgG1 (antibody, V domains shown)
VH: QVQLVQSGAEVKKPGASVKVSCKASGYKFTGFVMHWVRQAPGQGLEWMGFINPYNDDIQSNERFRGRVTMTRDTSISTAYMELSRLRSDDTAVYYCARGAGYNFDGAYRFFDFWGQGTMVTVSS
VL: DIVMTQSPLSLPVTPGEPASISCRSSQRLVHSNGNTYLHWYLQKPGQSPRLLIYRVSNRFPGVPDRFSGSGSGTDFTLKISRVEAEDVGVYYCSQSTHVPYTFGQGTKLEIK
notes: as the VH of m1 with the stated changes; positions in Kabat numbering; constant region of the human IgG1 heavy chain; as the light chain of m1; IgG1; also called Lys28/Phe32; Thr28Lys, Tyr32Phe double mutant; source: ExpiCHO, transient transfection, purified (MabSelect SuRe)
For B8, in [3], the Kd worked out at 387 nM and the off-rate constant (koff) was 0.0689 s⁻¹. In addition, in [4], the equilibrium dissociation constant (Kd) worked out at 999 nM and the off-rate (koff) came out at 0.125 s⁻¹.

B9: Mut6 (HuJovi-1 VH A96N), human IgG1 (antibody, V domains shown)
VH: QVQLVQSGAEVKKPGASVKVSCKASGYTFTGYVMHWVRQAPGQGLEWMGFINPYNDDIQSNERFRGRVTMTRDTSISTAYMELSRLRSDDTAVYYCARGNGYNFDGAYRFFDFWGQGTMVTVSS
VL: DIVMTQSPLSLPVTPGEPASISCRSSQRLVHSNGNTYLHWYLQKPGQSPRLLIYRVSNRFPGVPDRFSGSGSGTDFTLKISRVEAEDVGVYYCSQSTHVPYTFGQGTKLEIK
notes: as for B7
With B9, the Kd in assay [3] amounted to 13.8 nM; in assay [4], 379 nM. The figures for the koff in assay [3] and in assay [4] were 0.00197 s⁻¹ and 0.00194 s⁻¹, respectively.

B10: Mut7 (HuJovi-1 VH T28K, A96N), human IgG1 (antibody, V domains shown)
VH: QVQLVQSGAEVKKPGASVKVSCKASGYKFTGYVMHWVRQAPGQGLEWMGFINPYNDDIQSNERFRGRVTMTRDTSISTAYMELSRLRSDDTAVYYCARGNGYNFDGAYRFFDFWGQGTMVTVSS
VL: DIVMTQSPLSLPVTPGEPASISCRSSQRLVHSNGNTYLHWYLQKPGQSPRLLIYRVSNRFPGVPDRFSGSGSGTDFTLKISRVEAEDVGVYYCSQSTHVPYTFGQGTKLEIK
notes: as the VH of m1 with the stated changes; positions in Kabat numbering; constant region of the human IgG1 heavy chain; as the light chain of m1; IgG1; source: ExpiCHO, transient transfection, purified (MabSelect SuRe)
As to B10, the values for the Kd in [3] and in assay [4] were 36.5 nM and 395 nM, respectively. The koff was determined as 0.00524 s⁻¹ in assay [3] and 0.166 s⁻¹ in assay [4].

B11: HuJovi-1 scFv-Fc (scFv, V domains shown)
VH: QVQLVQSGAEVKKPGASVKVSCKASGYTFTGYVMHWVRQAPGQGLEWMGFINPYNDDIQSNERFRGRVTMTRDTSISTAYMELSRLRSDDTAVYYCARGAGYNFDGAYRFFDFWGQGTMVTVSS
VL: DIVMTQSPLSLPVTPGEPASISCRSSQRLVHSNGNTYLHWYLQKPGQSPRLLIYRVSNRFPGVPDRFSGSGSGTDFTLKISRVEAEDVGVYYCSQSTHVPYTFGQGTKLEIK
notes: scFv of HuJovi-1: VH and VL as in m1 (PDB 7AMP, 7AMQ); scFv-Fc with a murine IgG2a Fc; captured on a Protein A chip; source: ExpiCHO, transient transfection, purified (MabSelect SuRe)
As for B11, in assay [9], the Kd was 7.51 nM and the koff turned out to be 0.003 s⁻¹.
